From patent publication US20260035462A1 (Hoffmann-La Roche, published 2026)
Read-outs that look alike come from different tables or passages of the source.

T1: Trop2 on human cancer cell lines (T-47D, HPAF II, HeLa NLR, OVMANA) (human, UniProt P09758 27-323)
T1 construct: whole, on cells; also called Tumor-associated calcium signal transducer 2
T1 sequence (looked up): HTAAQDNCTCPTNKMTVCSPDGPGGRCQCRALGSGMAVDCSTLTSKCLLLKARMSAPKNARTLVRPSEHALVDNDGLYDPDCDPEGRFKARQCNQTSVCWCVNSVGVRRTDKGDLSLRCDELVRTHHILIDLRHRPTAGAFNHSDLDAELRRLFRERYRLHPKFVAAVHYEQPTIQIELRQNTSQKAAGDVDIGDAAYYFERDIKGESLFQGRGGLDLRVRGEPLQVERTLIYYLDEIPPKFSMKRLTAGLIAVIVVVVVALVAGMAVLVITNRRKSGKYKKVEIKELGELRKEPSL


Tests used:
[1] = biological target: T2, human CD3 on Jurkat NFAT reporter T cells (human, UniProt P07766 23-207); test: flow cytometry on Jurkat NFAT reporter T cells (human CD3), 1:4 titration from 50 nM, FITC anti-human IgG Fcγ secondary antibody, median fluorescence; sample pre-incubated overnight with Matriptase (+M)
T2 construct: whole, on cells; also called CD3 on Jurkat T cells
T2 sequence (P07766 23-207): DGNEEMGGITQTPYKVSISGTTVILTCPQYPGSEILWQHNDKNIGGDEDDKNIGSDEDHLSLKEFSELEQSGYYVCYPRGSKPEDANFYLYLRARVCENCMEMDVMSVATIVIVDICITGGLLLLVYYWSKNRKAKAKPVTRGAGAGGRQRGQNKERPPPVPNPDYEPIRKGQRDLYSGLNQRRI
Description: (§1) Jurkat-NFAT reporter cells (GloResponse Jurkat NFAT-RE-luc2P; Promega #CS176501) are a human acute lymphatic leukemia reporter cell line with a NFAT promoter, expressing human CD3. The cells were cultured in RPMI1640, 2 g/l glucose, 2 g/l NaHCO₃, 10% FBS, 25 mM HEPES, 2 mM L-glutamin, 1×NEAA, 1× sodium-pyruvate at 0.1-0.5 mio cells per ml.
(§2) The next day, Jurkat cells were harvested and transferred into a 96 well round bottom plate (100,000 cells per well). […] After the staining, the cells were washed twice with FACS buffer to remove unbound molecules. […] After 30 minutes incubation at 4° C. the cells were washed twice with FACS buffer to remove unbound antibodies. Finally, the cells were resuspended in 100 μl FACS buffer and analyzed by flow cytometry using BD Canto II.

[2] = biological target: T2, human CD3 on Jurkat NFAT reporter T …; test: flow cytometry on Jurkat NFAT reporter T cells (human CD3), 1:4 titration from 50 nM, FITC anti-human IgG Fcγ secondary antibody, median fluorescence; sample not treated with Matriptase
Description: as §1, §2

[3] = biological target: T1, Trop2 on human cancer cell lines …; test: flow cytometry on T-47D cells, FITC anti-human IgG Fcγ secondary antibody, median fluorescence
Description: (§3) Target cells were harvested and transferred into a 96 well round bottom plate (100,000 cells per well). […] After the staining, the cells were washed twice with FACS buffer to remove unbound molecules. […] After 30 minutes incubation at 4° C. the cells were washed twice with FACS buffer to remove unbound antibodies. Finally, the cells were resuspended in 100 μl FACS buffer and analyzed by flow cytometry using BD Canto II.

[4] = biological target: T1, Trop2 on human cancer cell lines …; test: flow cytometry on HeLa ST14 cells, FITC anti-human IgG Fcγ secondary antibody, median fluorescence
Description: as §3

[5] = biological target: T1, Trop2 on human cancer cell lines …; test: flow cytometry on OVMANA cells, FITC anti-human IgG Fcγ secondary antibody, median fluorescence
Description: as §3

[6] = biological target: T1, Trop2 on human cancer cell lines …; test: flow cytometry on HPAF II cells, FITC anti-human IgG Fcγ secondary antibody, median fluorescence
Description: as §3

[7] = biological target: T2, human CD3 on Jurkat NFAT reporter T …; test: flow cytometry on Jurkat NFAT reporter T cells (human CD3), 1:4 titration from 50 nM, FITC anti-human IgG Fcγ secondary antibody, median fluorescence; sample not treated with Matriptase; remark: listed apart in the source
Description: Jurkat-NFAT reporter cells (GloResponse Jurkat NFAT-RE-luc2P; Promega #CS176501) are a human acute lymphatic leukemia reporter cell line with a NFAT promoter, expressing human CD3. The cells were cultured in RPMI1640, 2 g/l glucose, 2 g/l NaHCO₃, 10% FBS, 25 mM HEPES, 2 mM L-glutamin, 1×NEAA, 1×sodium-pyruvate at 0.1-0.5 mio cells per ml.
The next day, Jurkat cells were harvested and transferred into a 96 well round bottom plate (100′000 cells per well). […] After the staining, the cells were washed twice with FACS buffer to remove unbound molecules. […] After 30 min incubation at 4° C. the cells were washed twice with FACS buffer to remove unbound antibodies. Finally, the cells were resuspended in a 100 μl FACS buffer and analyzed by flow cytometry using BD Canto II.

Row | Binder | EC50 (read off the curve) [1] [nM] | binding result [2] | EC50 (read off the curve) [3] [nM] | EC50 (read off the curve) [4] [nM] | EC50 (read off the curve) [5] [nM] | EC50 (read off the curve) [6] [nM] | binding result [7]
1 | Matriptase pre-cleaved Trop2 proTCB (P1AI0690 after overnight incubation with Matriptase) (bispecific antibody, also called Matriptase pre-cleaved (+M) Trop2 proTCB) heavy 1: DIQMTQSPSSLSASVGDRVTITCKASQDVSIAVAWYQQKPGKAPKVLIYSASYRYTGVPDRFSGSGSGTDFTFTISSLQPEDIAVYYCQQHYITPLTFGGGTKVEIKSSASTKGPSVFPLAPSSKSTSGGTAALGCLVKDYFPEPVTVSWNSGALTSGVHTFPAVLQSSGLYSLSSVVTVPSSSLGTQTYICNVNHKPSNTKVDKKVEPKSCDKTHTCPPCPAPEAAGGPSVFLFPPKPKDTLMISRTPEVTCVVVDVSHEDPEVKFNWYVDGVEVHNAKTKPREEQYNSTYRVVSVLTVLHQDWLNGKEYKCKVSNKALGAPIEKTISKAKGQPREPQVCTLPPSRDELTKNQVSLSCAVKGFYPSDIAVEWESNGQPENNYKTTPPVLDSDGSFFLVSKLTVDKSRWQQGNVFSCSVMHEALHNHYTQKSLSLSPG heavy 2: not shown light 1: QAVVTQEPSLTVSPGGTVTLTCGSSTGAVTTSNYANWVQEKPGQAFRGLIGGTNKRAPGTPARFSGSLLGGKAALTLSGAQPEDEAEYYCALWYSNLWVFGGGTKLTVLGQPKAAPSVTLFPPSSKKLQANKATLVCLISDFYPGAVTVAWKADSSPVKAGVETTTPSKQSNNKYAASSYLSLTPEQWKSHRSYSCQVTHEGSTVEKTVAPTECS light 2: QIQLVQSGHEVKKPGASVKVSCKASGYTFTNYGMNWVRQAPGQGLEWMGWINTKTGEPTYAEEFKGRFVFSLETSASTAYLQISSLKAEDMAMYFCGRGGYGSSYWYFDVWGQGTTVTVSSASVAAPSVFIFPPSDEQLKSGTASVVCLLNNFYPREAKVQWKVDNALQSGNSQESVTEQDSKDSTYSLSSTLTLSKADYEKHKVYACEVTHQGLSSPVTKSFNRGEC | ~0.9 |  |  |  |  |  | 
2 | non-cleavable Trop2 proTCB P1AI0691 (Trop2 pro-TCB 2+1; non-cleavable) (bispecific antibody, human IgG1, lambda, L234A L235A, H1L2 mask joined by a GS linker without a protease site; also called non-cleavable proTCB) heavy 1: DIQMTQSPSSLSASVGDRVTITCKASQDVSIAVAWYQQKPGKAPKVLIYSASYRYTGVPDRFSGSGSGTDFTFTISSLQPEDIAVYYCQQHYITPLTFGGGTKVEIKSSASTKGPSVFPLAPSSKSTSGGTAALGCLVKDYFPEPVTVSWNSGALTSGVHTFPAVLQSSGLYSLSSVVTVPSSSLGTQTYICNVNHKPSNTKVDKKVEPKSCDKTHTCPPCPAPEAAGGPSVFLFPPKPKDTLMISRTPEVTCVVVDVSHEDPEVKFNWYVDGVEVHNAKTKPREEQYNSTYRVVSVLTVLHQDWLNGKEYKCKVSNKALGAPIEKTISKAKGQPREPQVCTLPPSRDELTKNQVSLSCAVKGFYPSDIAVEWESNGQPENNYKTTPPVLDSDGSFFLVSKLTVDKSRWQQGNVFSCSVMHEALHNHYTQKSLSLSPG heavy 2: not shown light 1: QAVVTQEPSLTVSPGGTVTLTCGSSTGAVTTSNYANWVQEKPGQAFRGLIGGTNKRAPGTPARFSGSLLGGKAALTLSGAQPEDEAEYYCALWYSNLWVFGGGTKLTVLGQPKAAPSVTLFPPSSKKLQANKATLVCLISDFYPGAVTVAWKADSSPVKAGVETTTPSKQSNNKYAASSYLSLTPEQWKSHRSYSCQVTHEGSTVEKTVAPTECS light 2: QIQLVQSGHEVKKPGASVKVSCKASGYTFTNYGMNWVRQAPGQGLEWMGWINTKTGEPTYAEEFKGRFVFSLETSASTAYLQISSLKAEDMAMYFCGRGGYGSSYWYFDVWGQGTTVTVSSASVAAPSVFIFPPSDEQLKSGTASVVCLLNNFYPREAKVQWKVDNALQSGNSQESVTEQDSKDSTYSLSSTLTLSKADYEKHKVYACEVTHQGLSSPVTKSFNRGEC |  | no binding (tested: 50 nM) | ~2 | ~2 | ~3 | ~2 | 
3 | Trop2 proTCB P1AI0690 (Trop2 pro-TCB 2+1; matriptase; P035.093 PQARK H1L2 mask), not Matriptase pre-cleaved (bispecific antibody, human IgG1, lambda, L234A L235A, Knob-into-hole 2+1 format; also called masked Trop2 proTCB; not pre-cleaved Trop2 proTCB) heavy 1: DIQMTQSPSSLSASVGDRVTITCKASQDVSIAVAWYQQKPGKAPKVLIYSASYRYTGVPDRFSGSGSGTDFTFTISSLQPEDIAVYYCQQHYITPLTFGGGTKVEIKSSASTKGPSVFPLAPSSKSTSGGTAALGCLVKDYFPEPVTVSWNSGALTSGVHTFPAVLQSSGLYSLSSVVTVPSSSLGTQTYICNVNHKPSNTKVDKKVEPKSCDKTHTCPPCPAPEAAGGPSVFLFPPKPKDTLMISRTPEVTCVVVDVSHEDPEVKFNWYVDGVEVHNAKTKPREEQYNSTYRVVSVLTVLHQDWLNGKEYKCKVSNKALGAPIEKTISKAKGQPREPQVCTLPPSRDELTKNQVSLSCAVKGFYPSDIAVEWESNGQPENNYKTTPPVLDSDGSFFLVSKLTVDKSRWQQGNVFSCSVMHEALHNHYTQKSLSLSPG heavy 2: not shown light 1: QAVVTQEPSLTVSPGGTVTLTCGSSTGAVTTSNYANWVQEKPGQAFRGLIGGTNKRAPGTPARFSGSLLGGKAALTLSGAQPEDEAEYYCALWYSNLWVFGGGTKLTVLGQPKAAPSVTLFPPSSKKLQANKATLVCLISDFYPGAVTVAWKADSSPVKAGVETTTPSKQSNNKYAASSYLSLTPEQWKSHRSYSCQVTHEGSTVEKTVAPTECS light 2: QIQLVQSGHEVKKPGASVKVSCKASGYTFTNYGMNWVRQAPGQGLEWMGWINTKTGEPTYAEEFKGRFVFSLETSASTAYLQISSLKAEDMAMYFCGRGGYGSSYWYFDVWGQGTTVTVSSASVAAPSVFIFPPSDEQLKSGTASVVCLLNNFYPREAKVQWKVDNALQSGNSQESVTEQDSKDSTYSLSSTLTLSKADYEKHKVYACEVTHQGLSSPVTKSFNRGEC |  | no binding (tested: 50 nM) | ~2 | ~1 | ~1 | ~1 | 
4 | non-cleavable IGF-1R proTCB P1AH0969 (IGF-1R pro-TCB 2+1; non-cleavable) (bispecific antibody, human IgG1, lambda, L234A L235A, H1L2 mask joined by a GS linker without a protease site; also called non-cleavable IGF-1R TCB construct; non-cleavable proTCB) heavy 1: EIVLTQSPATLSLSPGERATLSCRASQSVSSYLAWYQQKPGQAPRLLIYDASKRATGIPARFSGSGSGTDFTLTISSLEPEDFAVYYCQQRSKWPPWTFGQGTKVESKSSASTKGPSVFPLAPSSKSTSGGTAALGCLVKDYFPEPVTVSWNSGALTSGVHTFPAVLQSSGLYSLSSVVTVPSSSLGTQTYICNVNHKPSNTKVDKKVEPKSCDKTHTCPPCPAPEAAGGPSVFLFPPKPKDTLMISRTPEVTCVVVDVSHEDPEVKFNWYVDGVEVHNAKTKPREEQYNSTYRVVSVLTVLHQDWLNGKEYKCKVSNKALGAPIEKTISKAKGQPREPQVCTLPPSRDELTKNQVSLSCAVKGFYPSDIAVEWESNGQPENNYKTTPPVLDSDGSFFLVSKLTVDKSRWQQGNVFSCSVMHEALHNHYTQKSLSLSPG heavy 2: not shown light 1: QAVVTQEPSLTVSPGGTVTLTCGSSTGAVTTSNYANWVQEKPGQAFRGLIGGTNKRAPGTPARFSGSLLGGKAALTLSGAQPEDEAEYYCALWYSNLWVFGGGTKLTVLGQPKAAPSVTLFPPSSKKLQANKATLVCLISDFYPGAVTVAWKADSSPVKAGVETTTPSKQSNNKYAASSYLSLTPEQWKSHRSYSCQVTHEGSTVEKTVAPTECS light 2: QVELVESGGGVVQPGRSQRLSCAASGFTFSSYGMHWVRQAPGKGLEWVAIIWFDGSSTYYADSVRGRFTISRDNSKNTLYLQMNSLRAEDTAVYFCARELGRRYFDLWGRGTLVSVSSASVAAPSVFIFPPSDEQLKSGTASVVCLLNNFYPREAKVQWKVDNALQSGNSQESVTEQDSKDSTYSLSSTLTLSKADYEKHKVYACEVTHQGLSSPVTKSFNRGEC |  |  |  |  |  |  | no binding (tested: 50 nM)
5 | IGF-1R proTCB P1AH0943 (IGF-1R pro-TCB 2+1; matriptase; P035.093 PQARK H1L2 mask), not Matriptase pre-cleaved (bispecific antibody, human IgG1, lambda, L234A L235A, Knob-into-hole 2+1 format with the anti-idiotypic H1L2 scFv mask fused through a PQARK linker to the VH of the CD3 Fab; also called not-Matriptase pre-cleaved IGF-1R proTCB; not pre-cleaved IGF-1R proTCB) heavy 1: EIVLTQSPATLSLSPGERATLSCRASQSVSSYLAWYQQKPGQAPRLLIYDASKRATGIPARFSGSGSGTDFTLTISSLEPEDFAVYYCQQRSKWPPWTFGQGTKVESKSSASTKGPSVFPLAPSSKSTSGGTAALGCLVKDYFPEPVTVSWNSGALTSGVHTFPAVLQSSGLYSLSSVVTVPSSSLGTQTYICNVNHKPSNTKVDKKVEPKSCDKTHTCPPCPAPEAAGGPSVFLFPPKPKDTLMISRTPEVTCVVVDVSHEDPEVKFNWYVDGVEVHNAKTKPREEQYNSTYRVVSVLTVLHQDWLNGKEYKCKVSNKALGAPIEKTISKAKGQPREPQVCTLPPSRDELTKNQVSLSCAVKGFYPSDIAVEWESNGQPENNYKTTPPVLDSDGSFFLVSKLTVDKSRWQQGNVFSCSVMHEALHNHYTQKSLSLSPG heavy 2: not shown light 1: QAVVTQEPSLTVSPGGTVTLTCGSSTGAVTTSNYANWVQEKPGQAFRGLIGGTNKRAPGTPARFSGSLLGGKAALTLSGAQPEDEAEYYCALWYSNLWVFGGGTKLTVLGQPKAAPSVTLFPPSSKKLQANKATLVCLISDFYPGAVTVAWKADSSPVKAGVETTTPSKQSNNKYAASSYLSLTPEQWKSHRSYSCQVTHEGSTVEKTVAPTECS light 2: QVELVESGGGVVQPGRSQRLSCAASGFTFSSYGMHWVRQAPGKGLEWVAIIWFDGSSTYYADSVRGRFTISRDNSKNTLYLQMNSLRAEDTAVYFCARELGRRYFDLWGRGTLVSVSSASVAAPSVFIFPPSDEQLKSGTASVVCLLNNFYPREAKVQWKVDNALQSGNSQESVTEQDSKDSTYSLSSTLTLSKADYEKHKVYACEVTHQGLSSPVTKSFNRGEC |  |  |  |  |  |  | no binding (tested: 50 nM)
